pKd: −log10 of the molar value. Like-named read-outs stand apart in the source and are kept apart here. One block for each substance: values may come before it.
Tests used:
[1] = target: 11S, large fragment of a split luciferase
[2] = target: 11S, large fragment of a split luciferase; remark: listed apart in the source
[3] = target: 11S, large fragment of a split luciferase; remark: listed apart in the source
[4] = target: 11S, large fragment of a split luciferase; remark: listed apart in the source
[5] = target: 11S, large fragment of a split luciferase; remark: listed apart in the source
[6] = target: 11S, large fragment of a split luciferase; remark: listed apart in the source
[7] = target: 11S, large fragment of a split luciferase; remark: listed apart in the source
[8] = target: 11S, large fragment of a split luciferase; remark: listed apart in the source

Substance: PINK1(ALALAL) DDL (from UniProt Q9BXM7 78-581)
- pKd [1]: 6.88

Substance: PINK1(3EA) DLD (from UniProt Q9BXM7 78-581)
- pKd [3]: 7.03

Substance: PINK1Δ(1-91) DDL (from UniProt Q9BXM7 92-581)
- pKd [5]: 6.73

Substance: PINK1 DDL I111S (from UniProt Q9BXM7 78-581)
- pKd [6]: 6.84

Substance: PINK1Δ(1-150) DDL (from UniProt Q9BXM7 151-581)
- pKd [7]: 6.35

Substance: PINK1(3EA) LDD (from UniProt Q9BXM7 78-581)
- pKd [8]: 6.55

Next, values leading:

- pKd [2]: 6.62
Substance: PINK1Δ(1-50) DDL (from UniProt Q9BXM7 51-581)

- pKd [4]: 6.15
Substance: PINK1(3EA) DDL (from UniProt Q9BXM7 78-581)

From article doi:10.1101/2024.11.06.622366
